Measured values: PMC4898720, “NrdR Transcription Regulation: Global Proteome Analysis and Its Role in Escherichia coli Viability and Virulence” (PLoS ONE, 2016)

Target: the molecule itself
Experiment: SDS-PAGE of gel filtration fractions with peptide mass fingerprinting; SDS-PAGE of Superdex 200 fractions of un-refolded and refolded NrdR; ~40 kDa band identified by peptide mass fingerprinting; samples boiled 10 min with 5 mM DTT

B1: E. coli NrdR (natural protein, UniProt P0A8D0 1-149, looked up)
chain: MHCPFCFAVDTKVIDSRLVGEGSSVRRRRQCLVCNERFTTFEVAELVMPRVVKSNDVREPFNEEKLRSGMLRALEKRPVSSDDVEMAINHIKSQLRATGEREVPSKMIGNLVMEQLKKLDKVAYIRFASVYRSFEDIKEFGEEIARLED
notes: Transcriptional repressor NrdR of E. coli BW25113, full length ORF cloned between NdeI and XhoI of pET21b; also called EcNrdR; as prepared NrdR; source: E. coli BL21 (DE3), purified (HisTrap Ni column, Superdex 200 gel filtration)
stoichiometry N: 2
